Patent US20220411477A1 (MONASH UNIVERSITY, published 2022)
Where a chain is given by its changes, count along the chain named. Names and notes keep the numbering of the source.

B1: hAMH mutant A546M (ligand)
chain 1: HHHHHHPAVGTSGLIFREDLDWPPGSPQEPLCLVALGGDSNGSSSPLRVVGALSAYEQAFLGAVQRARWGPRDLATFGVCNTGDRQAALPSLRRLGAWLQDPGGQRLVVLHLEEVTWEPTPSLRFQEPPPGGAGPPELALLVLYPGPGPEVTVTRAGLPGAQSLCPSRDTRYLVLAVDRPAGAWRGSGLALTLQPRGEDSRLSTARLQALLFGDDHRCFTRMTPALLLLPRSEPAPLPAHGQLDTVPFPPPRPSAELEESPPSADPFLETLTRLVRALRVPPARASAPRLALDPDALAGFPQGLVNLSDPAALERLLDGEEPLLLLLRPTAATTGDPAPLHDPTSAPWATALARRVAAELQAAAAELRSLPGLPPATAPLLARLLALCPGGPGGLGDPLRALLLLKALQGLRVEWRGRDPRGPGISSRKKR
chain 2: SVSSSAGATAADGPCALRELSVDLRAERSVLIPETYQANNCQGVCGWPQSDRNPRYGNHVVLLLKMQARGAALARPPCCVPTAYAGKLLISLSEERISMHHVPNMVATECGCR
B2: hAMH+SCUT+RSA H548K mutant (ligand)
chain 1: B1 chain 1
chain 2: B1 chain 2 with M99A, H101K
B3: hAMH+SCUT+RSA G533A mutant (ligand)
chain 1: B1 chain 1
chain 2: B1 chain 2 with G86A, M99A

Molecular target: T1, AMH-specific type II receptor, AMHR2 (UniProt Q16671 18-573, limits assumed)
T1 sequence (looked up): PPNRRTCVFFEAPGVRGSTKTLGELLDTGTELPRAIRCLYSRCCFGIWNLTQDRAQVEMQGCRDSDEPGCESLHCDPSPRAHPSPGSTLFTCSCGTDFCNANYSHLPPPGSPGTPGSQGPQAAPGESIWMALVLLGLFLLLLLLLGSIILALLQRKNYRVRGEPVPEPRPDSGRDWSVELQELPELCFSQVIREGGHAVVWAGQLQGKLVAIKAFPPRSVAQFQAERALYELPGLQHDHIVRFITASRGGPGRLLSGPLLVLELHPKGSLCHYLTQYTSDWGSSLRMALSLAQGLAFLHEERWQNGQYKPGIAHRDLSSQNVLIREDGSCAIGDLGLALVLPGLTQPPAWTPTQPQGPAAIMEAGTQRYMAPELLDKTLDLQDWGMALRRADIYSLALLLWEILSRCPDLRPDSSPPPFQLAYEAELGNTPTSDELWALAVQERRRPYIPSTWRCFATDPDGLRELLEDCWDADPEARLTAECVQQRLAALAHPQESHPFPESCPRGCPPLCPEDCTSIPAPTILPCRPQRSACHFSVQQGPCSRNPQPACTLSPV
Assay: cell-based or functional assay

| Binder | Maximal response relative to wild-type (%) | AMH activity relative to wild type (%) | EC50 in COV434 BRE-Luc assay [ng/mL] | Potency relative to ‘wild-type’ [fold more potent] |
| --- | --- | --- | --- | --- |
| B1 | ~5 | – | – | – |
| B2 | – | 100 | ~6 | – |
| B3 | – | 250 | ~2.8 | ~2 |
